Measurements published in paper PMC10123104, “YbiB: a novel interactor of the GTPase ObgE” (Nucleic Acids Research, 2023).
Where a chain is given by its changes, count along the chain named. In names and notes the source's numbering stands. Several values for one entry are separate records, joined by “and”; a condition that tells them apart may be missing. Equal values may be shown once.

B1: YbiB Arg92Glu, N-terminally His6-tagged (natural protein, E. coli, UniProt P30177 1-320, looked up)
chain: MDYRKIIKEIGRGKNHARDLDRDTARGLYAHMLNGEVPDLELGGVLIALRIKGEGEAEMLGFYEAMQNHTIKLTPPAGKPMPIVIPSYNGAEKQANLTPLLAILLHKLGFPVVVHGVSEDPTRVLTETIFELMGITPTLHGGQAQAKLDEHQPVFMPVGAFCPPLEKQLAMRWRMGVRNSAHTLAKLATPFAEGEALRLSSVSHPEYIGRVAKFFSDIGGRALLMHGTEGEVYANPQRCPQINLIDREGMRVLYEKQDTAGSELLPQAKDPETTAQWIERCLAGSEPIPESLKIQMACCLVATGEAATISDGLARVNQAF
notes: no measurement of its oligomeric state is reported; also called YbiB R92E; pET28a-ybiBR92E; source: E. coli BL21 (DE3) pLysS, purified (HisTrap FF, Superdex 200); not shown: His6, N-terminal, kept
B2: YbiB (E. coli TrpD2 protein), N-terminally His6-tagged, wild type (natural protein, UniProt P30177 1-320, looked up)
chain: B1 chain with E92R
notes: YbiB, TrpD2 family protein of Escherichia coli, open reading frame amplified from BW25113 genomic DNA; cloned in pET28a (NheI/EcoRI) behind His6 and a thrombin site; its numbers there are shifted by 1; No thrombin cleavage is described; also called YbiB WT; YbiB dimer; source: E. coli BL21 (DE3) pLysS, purified (HisTrap FF, Superdex 200); not shown: His6, N-terminal, kept
B3: full-length E. coli YbiB protein, N-terminally His6-tagged (natural protein, UniProt P30177 1-320, looked up)
chain: B1 chain with E92R
notes: homodimer; No cleavage of the His6-tag is told; the pull-down names the tag on the protein; also called YbiB WT; TrpD2 protein YbiB; source: E. coli BL21 (DE3) pLysS, purified (HisTrap, SEC); not shown: His6, N-terminal, kept
B4: YbiB Arg123Glu, N-terminally His6-tagged (natural protein, E. coli, UniProt P30177 1-320, looked up)
chain: B1 chain with E92R, R123E
notes: no measurement of its oligomeric state is reported; also called YbiB R123E; pET28a-ybiBR123E; source: E. coli BL21 (DE3) pLysS, purified (HisTrap FF, Superdex 200); not shown: His6, N-terminal, kept
B5: ObgE C-terminal peptide4 (residues 361-380 of ObgE) (peptide)
peptide: LEEIAEEDDEDWDDDWDEDD
notes: residues 375-380 (DWDEDD) are resolved in the crystal structure; also called peptide4-WW; SBL-OBGE-03; source: synthetic peptide (Fmoc SPPS, HPLC purified)
B6: peptide4-AA (variant of ObgE peptide4 with both Trp residues substituted by Ala) (peptide, UniProt P42641 361-380, looked up)
peptide: LEEIAEEDDEDADDDADEDD
notes: source: synthetic peptide (Fmoc SPPS, HPLC purified)
B7: ObgE C-terminal peptide4-AA (peptide)
peptide: LEEIAEEDDEDADDDADEDD
notes: free termini (H-...-OH); also called SBL-OBGE-06; source: synthetic peptide (in-house Fmoc SPPS, HPLC purified)

Tests used:
[1] = target: T1, ObgE (E. coli Obg GTPase), N-terminally His6-tagged (E. coli, UniProt P42641 1-390); experiment: ITC; MicroCal iTC200, 25°C, 20 mM HEPES pH 7.5, 150 mM NaCl, 5 mM MgCl2, 1 mM β-mercaptoethanol; ObgE or ObgE-derived peptide in the sample cell (50-75 µM), YbiB (WT or mutant) in the syringe (500 µM-1.4 mM); 'ligand in cell' function; biphasic isotherms fitted on a 'two sets of sites' model; subunit concentrations; parameters of each individual repeat; conditions: both partners purified
T1 construct: GTPase ObgE (Obg) of Escherichia coli, 390 residues; also called pET28a-obgE; source: E. coli BL21 (DE3) pLysS, purified (HisTrap FF, alkaline phosphatase treatment, Superdex 75), nucleotide-free; not shown: His6, N-terminal, kept
T1 sequence (P42641 whole entry): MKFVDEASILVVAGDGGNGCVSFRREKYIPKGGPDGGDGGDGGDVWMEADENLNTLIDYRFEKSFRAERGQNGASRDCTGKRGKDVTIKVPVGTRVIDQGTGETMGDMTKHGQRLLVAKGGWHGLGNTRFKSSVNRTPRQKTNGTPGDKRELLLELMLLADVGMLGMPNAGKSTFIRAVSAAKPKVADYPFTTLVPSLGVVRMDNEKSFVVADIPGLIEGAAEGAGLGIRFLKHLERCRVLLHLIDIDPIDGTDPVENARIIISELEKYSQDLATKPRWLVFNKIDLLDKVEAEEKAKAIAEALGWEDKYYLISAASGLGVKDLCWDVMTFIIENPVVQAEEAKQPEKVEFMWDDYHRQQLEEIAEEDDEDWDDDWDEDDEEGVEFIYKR

[2] = target: B7; experiment: as above; conditions: both partners purified
[3] = target: T2, N-terminally His6-tagged ObgE protein (Escherichia coli Obg) (E. coli, UniProt P42641 1-390); experiment: ITC; YbiB in the syringe (500 μM to 1.4 mM) titrated into ObgE constructs or ObgE-derived peptides in the cell (50-75 μM); 25°C; 20 mM HEPES pH 7.5, 150 mM NaCl, 5 mM MgCl2, 1 mM β-mercaptoethanol; 'two sets of sites' model with 'ligand in cell' for biphasic isotherms; subunit concentrations; conditions: both partners purified
T2 construct: GTPase ObgE of Escherichia coli, whole protein, ORF in pET28a; monomer by SEC-MALS; nucleotide-free after alkaline phosphatase treatment; also called full-length ObgE; not shown: His6, N-terminal, kept
T2 sequence (P42641 whole entry): as above

[4] = target: T2, N-terminally His6-tagged ObgE protein …; experiment: SEC-SAXS; pre-formed YbiB-ObgE complex (mixed 1:3, isolated on Superdex 200, 7.6 mg/ml); 20 mM HEPES pH 7.5, 150 mM NaCl, 5 mM MgCl2, 2 mM DTT, 5% glycerol; molar mass by Bayesian inference; conditions: both partners purified
[5] = target: T2, N-terminally His6-tagged ObgE protein …; experiment: SEC-MALS; Superdex 200 5/150 GL increase; ObgE and YbiB alone at 1.5 mg/ml; YbiB and ObgE mixed 1:3 (20 and 60 μM); 20 mM HEPES pH 7.5, 150 mM NaCl, 5 mM MgCl2, 5% glycerol, 2 mM DTT; conditions: both partners purified
[6] = target: the molecule itself; experiment: as above
[7] = target: B3; experiment: ITC; YbiB in the syringe (500 μM to 1.4 mM) titrated into ObgE constructs or ObgE-derived peptides in the cell (50-75 μM); 25°C; 20 mM HEPES pH 7.5, 150 mM NaCl, 5 mM MgCl2, 1 mM β-mercaptoethanol; 'two sets of sites' model with 'ligand in cell' for biphasic isotherms; subunit concentrations; conditions: both partners purified
[8] = target: B2; experiment: ITC; MicroCal iTC200, 25°C, 20 mM HEPES pH 7.5, 150 mM NaCl, 5 mM MgCl2, 1 mM β-mercaptoethanol; ObgE or ObgE-derived peptide in the sample cell (50-75 µM), YbiB (WT or mutant) in the syringe (500 µM-1.4 mM); 'ligand in cell' function; biphasic isotherms fitted on a 'two sets of sites' model; subunit concentrations; parameters of each individual repeat; conditions: both partners purified

Question: Which “stoichiometry N” value [1] does the source give for B1 here?
Answer: 0.71 and 0.94 and 1.29

Question: Which “stoichiometry N” value [2] does the source give for B2 here?
Answer: 0.66 and 0.632 and 0.64

Question: B3 was tested. Which “KD of the first (high-affinity) binding event, two sets of sites” value [3] did it give?
Answer: 0.022 ± 0.001 µM

Question: And the “KD of the second (low-affinity) binding event, two sets of sites” value [3]?
Answer: 5 ± 1 µM

Question: What about the “stoichiometry N” value [4] of the same binder?
Answer: 2 ObgE per YbiB dimer

Question: And the “stoichiometry N” value [5]?
Answer: ~2 ObgE per YbiB dimer

Question: And the “stoichiometry N” value [6]?
Answer: 2

Question: How did the Kd [1] turn out when B4 was run?
Answer: 5 µM and 4 µM and 10 µM

Question: What about the “stoichiometry N” value [1] of the same binder?
Answer: 1.14 and 0.99

Question: Does B5 bind [7]?
Answer: binds

Question: For B6, which Kd [7] is on record?
Answer: ~10 µM

Question: How did the Kd [8] turn out when B7 was run?
Answer: 10 µM and 15 µM
